Test results taken from patent US20250027955A1, “ETHYLENE RECEPTORS AND BINDING DOMAINS WITH MODIFIED BINDING KINETICS FOR ETHYLENE” (Trustees of Dartmouth College, priority 2022, published 2025).

How the values were obtained:
[1] = system: Arabidopsis seedlings, etr1 etr2 ein4 background; assay: Triple-response hypocotyl growth assay of dark-grown seedlings expressing ETR1 transgenes; type: in vivo; conditions: for hypocotyl growth response to ethylene: dark-grown seedlings, 0 or 1 μL L^−1 ethylene
Procedure: Functionality of the ETR1 Asp25 mutants was tested by transgenic expression in the etr1 etr2 ein4 Arabidopsis background.
Applicant can thus exploit the triple mutant to assess the ability of the ETR1 transgenes to rescue growth in the absence of ethylene as well as their ability to mediate a response to ethylene. Such an analysis indicates whether the encoded receptors are able to assume the ‘on’ conformation that represses the ethylene response in air, as well as the ‘off’ conformation that occurs in response to ethylene binding.
All Arabidopsis lines were of the Columbia (Col-0) accession. The etr1-1 and etr1-6 etr2-3 ein4-4 mutant lines have been described. Analysis of the triple response of dark-grown Arabidopsis seedlings to ethylene was performed as described previously. Briefly, seedlings were grown at 22° C. on vertically oriented plates on half-strength Murashige and Skoog basal medium with Gamborg's vitamins (pH 5.75; Sigma), 0.8% (w/v) agar, and 5 μM aminoethoxyvinylglycine (AVG) to inhibit ethylene biosynthesis. The stratified seed was exposed to light for 8 hr and then moved to the dark in the presence or absence of ethylene, with analysis of the seedling growth being performed following 4 days total growth. For short-term kinetic analysis of dark-grown seedlings, time-lapse imaging and growth rate analysis of hypocotyls were carried out as described previously.

[2] = Saturable [14C]ethylene binding to yeast transgenically expressing ETR1; set-up: species or system Saccharomyces cerevisiae; conditions: 0.21 μL L^−1 [14C]ethylene; % of wild-type binding
Excerpt: Saturable ethylene binding of the ETR1 Asp25 mutants was examined by heterologous expression in yeast, with binding to [^14C]ethylene determined in the presence or absence of excess [^12C]ethylene (FIG. 2C). […] This included the ETR1^D25A mutant, consistent with previous observations, as well as for the ETR1^D25N and ETR1^D25Q mutants (FIG. 2C). Results from the ethylene binding assay are therefore consistent with the negative charge at D25 playing a significant role in mediating high-affinity ethylene binding.
[^14C]ethylene (specific activity=116 mCi/mmol) was obtained from ViTrax Radiochemicals (Placentia, CA) and trapped as the mercuric perchlorate complex as described. For ethylene binding assays in yeast, ETR1 was expressed in the yeast Saccharomyces cerevisiae (strain FY834) using the vector pYcDE-2 and a constitutive ADC1 promoter. The yeast growth media was supplemented with 40 μg L^−1 copper sulfate. Saturable ethylene binding to yeast was determined by analyzing binding of 0.3 g yeast per sample to 0.21 μL L^−1 [^14C]ethylene, in the presence or absence of excess [^12C]ethylene.

Molecule	hypocotyl growth response to ethylene [1]	ethylene binding relative to ETR1^wt [2]	rescue of growth of etr1 etr2 ein4 triple mutant in air ([1]; absence of ethylene, hypocotyl and adult shoot growth)
ETR1^K91R: ETR1 with basic Lys91 replaced by Arg (protein, UniProt P49333 1-738, looked up, variant K91R) Ethylene receptor 1: MEVCNCIEPQWPADELLMKYQYISDFFIAIAYFSIPLELIYFVKKSAVFPYRWVLVQFGAFIVLCGATHLINLWTFTTHSRTVALVMTTARVLTAVVSCATALMLVHIIPDLLSVKTRELFLKNKAAELDREMGLIRTQEETGRHVRMLTHEIRSTLDRHTILKTTLVELGRTLALEECALWMPTRTGLELQLSYTLRHQHPVEYTVPIQLPVINQVFGTSRAVKISPNSPVARLRPVSGKYMLGEVVAVRVPLLHLSNFQINDWPELSTKRYALMVLMLPSDSARQWHVHELELVEVVADQVAVALSHAAILEESMRARDLLMEQNVALDLARREAETAIRARNDFLAVMNHEMRTPMHAIIALSSLLQETELTPEQRLMVETILKSSNLLATLMNDVLDLSRLEDGSLQLELGTFNLHTLFREVLNLIKPIAVVKKLPITLNLAPDLPEFVVGDEKRLMQIILNIVGNAVKFSKQGSISVTALVTKSDTRAADFFVVPTGSHFYLRVKVKDSGAGINPQDIPKIFTKFAQTQSLATRSSGGSGLGLAISKRFVNLMEGNIWIESDGLGKGCTAIFDVKLGISERSNESKQSGIPKVPAIPRHSNFTGLKVLVMDENGVSRMVTKGLLVHLGCEVTTVSSNEECLRVVSHEHKVVFMDVCMPGVENYQIALRIHEKFTKQRHQRPLLVALSGNTDKSTKEKCMSFGLDGVLLKPVSLDNIRDVLSDLLEPRVLYEGM	conferred ethylene hyposensitivity	63%	–
ETR1^K91M: ETR1 with Lys91 replaced by a nonpolar sidechain of similar size (Met) (protein, UniProt P49333 1-738, looked up, variant K91M) Ethylene receptor 1: MEVCNCIEPQWPADELLMKYQYISDFFIAIAYFSIPLELIYFVKKSAVFPYRWVLVQFGAFIVLCGATHLINLWTFTTHSRTVALVMTTAMVLTAVVSCATALMLVHIIPDLLSVKTRELFLKNKAAELDREMGLIRTQEETGRHVRMLTHEIRSTLDRHTILKTTLVELGRTLALEECALWMPTRTGLELQLSYTLRHQHPVEYTVPIQLPVINQVFGTSRAVKISPNSPVARLRPVSGKYMLGEVVAVRVPLLHLSNFQINDWPELSTKRYALMVLMLPSDSARQWHVHELELVEVVADQVAVALSHAAILEESMRARDLLMEQNVALDLARREAETAIRARNDFLAVMNHEMRTPMHAIIALSSLLQETELTPEQRLMVETILKSSNLLATLMNDVLDLSRLEDGSLQLELGTFNLHTLFREVLNLIKPIAVVKKLPITLNLAPDLPEFVVGDEKRLMQIILNIVGNAVKFSKQGSISVTALVTKSDTRAADFFVVPTGSHFYLRVKVKDSGAGINPQDIPKIFTKFAQTQSLATRSSGGSGLGLAISKRFVNLMEGNIWIESDGLGKGCTAIFDVKLGISERSNESKQSGIPKVPAIPRHSNFTGLKVLVMDENGVSRMVTKGLLVHLGCEVTTVSSNEECLRVVSHEHKVVFMDVCMPGVENYQIALRIHEKFTKQRHQRPLLVALSGNTDKSTKEKCMSFGLDGVLLKPVSLDNIRDVLSDLLEPRVLYEGM	partial ethylene hyposensitivity	approximately 6%	failed to rescue seedling growth efficiently
ETR1^D25N,K91R: ETR1 combining Asp25Asn with K91R (protein, UniProt P49333 1-738, looked up, variant D25N K91R) Ethylene receptor 1: MEVCNCIEPQWPADELLMKYQYISNFFIAIAYFSIPLELIYFVKKSAVFPYRWVLVQFGAFIVLCGATHLINLWTFTTHSRTVALVMTTARVLTAVVSCATALMLVHIIPDLLSVKTRELFLKNKAAELDREMGLIRTQEETGRHVRMLTHEIRSTLDRHTILKTTLVELGRTLALEECALWMPTRTGLELQLSYTLRHQHPVEYTVPIQLPVINQVFGTSRAVKISPNSPVARLRPVSGKYMLGEVVAVRVPLLHLSNFQINDWPELSTKRYALMVLMLPSDSARQWHVHELELVEVVADQVAVALSHAAILEESMRARDLLMEQNVALDLARREAETAIRARNDFLAVMNHEMRTPMHAIIALSSLLQETELTPEQRLMVETILKSSNLLATLMNDVLDLSRLEDGSLQLELGTFNLHTLFREVLNLIKPIAVVKKLPITLNLAPDLPEFVVGDEKRLMQIILNIVGNAVKFSKQGSISVTALVTKSDTRAADFFVVPTGSHFYLRVKVKDSGAGINPQDIPKIFTKFAQTQSLATRSSGGSGLGLAISKRFVNLMEGNIWIESDGLGKGCTAIFDVKLGISERSNESKQSGIPKVPAIPRHSNFTGLKVLVMDENGVSRMVTKGLLVHLGCEVTTVSSNEECLRVVSHEHKVVFMDVCMPGVENYQIALRIHEKFTKQRHQRPLLVALSGNTDKSTKEKCMSFGLDGVLLKPVSLDNIRDVLSDLLEPRVLYEGM	more insensitive to ethylene than the ETR1^K91R mutant	–	–
ETR1^D25N,K91M: ETR1 combining Asp25Asn with K91M (protein, UniProt P49333 1-738, looked up, variant D25N K91M) Ethylene receptor 1: MEVCNCIEPQWPADELLMKYQYISNFFIAIAYFSIPLELIYFVKKSAVFPYRWVLVQFGAFIVLCGATHLINLWTFTTHSRTVALVMTTAMVLTAVVSCATALMLVHIIPDLLSVKTRELFLKNKAAELDREMGLIRTQEETGRHVRMLTHEIRSTLDRHTILKTTLVELGRTLALEECALWMPTRTGLELQLSYTLRHQHPVEYTVPIQLPVINQVFGTSRAVKISPNSPVARLRPVSGKYMLGEVVAVRVPLLHLSNFQINDWPELSTKRYALMVLMLPSDSARQWHVHELELVEVVADQVAVALSHAAILEESMRARDLLMEQNVALDLARREAETAIRARNDFLAVMNHEMRTPMHAIIALSSLLQETELTPEQRLMVETILKSSNLLATLMNDVLDLSRLEDGSLQLELGTFNLHTLFREVLNLIKPIAVVKKLPITLNLAPDLPEFVVGDEKRLMQIILNIVGNAVKFSKQGSISVTALVTKSDTRAADFFVVPTGSHFYLRVKVKDSGAGINPQDIPKIFTKFAQTQSLATRSSGGSGLGLAISKRFVNLMEGNIWIESDGLGKGCTAIFDVKLGISERSNESKQSGIPKVPAIPRHSNFTGLKVLVMDENGVSRMVTKGLLVHLGCEVTTVSSNEECLRVVSHEHKVVFMDVCMPGVENYQIALRIHEKFTKQRHQRPLLVALSGNTDKSTKEKCMSFGLDGVLLKPVSLDNIRDVLSDLLEPRVLYEGM	further reduction in the ability to rescue seedling growth and respond to ethylene	–	–
ETR1^D25N,K91A: ETR1 combining Asp25Asn with K91A (protein, UniProt P49333 1-738, looked up, variant D25N K91A) Ethylene receptor 1: MEVCNCIEPQWPADELLMKYQYISNFFIAIAYFSIPLELIYFVKKSAVFPYRWVLVQFGAFIVLCGATHLINLWTFTTHSRTVALVMTTAAVLTAVVSCATALMLVHIIPDLLSVKTRELFLKNKAAELDREMGLIRTQEETGRHVRMLTHEIRSTLDRHTILKTTLVELGRTLALEECALWMPTRTGLELQLSYTLRHQHPVEYTVPIQLPVINQVFGTSRAVKISPNSPVARLRPVSGKYMLGEVVAVRVPLLHLSNFQINDWPELSTKRYALMVLMLPSDSARQWHVHELELVEVVADQVAVALSHAAILEESMRARDLLMEQNVALDLARREAETAIRARNDFLAVMNHEMRTPMHAIIALSSLLQETELTPEQRLMVETILKSSNLLATLMNDVLDLSRLEDGSLQLELGTFNLHTLFREVLNLIKPIAVVKKLPITLNLAPDLPEFVVGDEKRLMQIILNIVGNAVKFSKQGSISVTALVTKSDTRAADFFVVPTGSHFYLRVKVKDSGAGINPQDIPKIFTKFAQTQSLATRSSGGSGLGLAISKRFVNLMEGNIWIESDGLGKGCTAIFDVKLGISERSNESKQSGIPKVPAIPRHSNFTGLKVLVMDENGVSRMVTKGLLVHLGCEVTTVSSNEECLRVVSHEHKVVFMDVCMPGVENYQIALRIHEKFTKQRHQRPLLVALSGNTDKSTKEKCMSFGLDGVLLKPVSLDNIRDVLSDLLEPRVLYEGM	all ethylene insensitive	–	–
